Source: article doi:10.1101/2024.07.24.604958 (bioRxiv, 2024)
Like-named read-outs stand apart in the source and are kept apart here.

T1: CIB2-DD116/120AA (mouse, UniProt Q9Z309 1-187, DD116/120AA | DD116/120AA)
T1 sequence: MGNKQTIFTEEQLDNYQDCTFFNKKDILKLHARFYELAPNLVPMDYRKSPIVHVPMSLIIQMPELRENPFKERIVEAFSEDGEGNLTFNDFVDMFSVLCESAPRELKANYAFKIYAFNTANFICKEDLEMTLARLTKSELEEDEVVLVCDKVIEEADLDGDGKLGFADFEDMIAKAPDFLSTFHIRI

T2: CIB2 (calcium and integrin-binding protein 2), wild type (mouse, UniProt Q9Z309 1-187)
T2 sequence: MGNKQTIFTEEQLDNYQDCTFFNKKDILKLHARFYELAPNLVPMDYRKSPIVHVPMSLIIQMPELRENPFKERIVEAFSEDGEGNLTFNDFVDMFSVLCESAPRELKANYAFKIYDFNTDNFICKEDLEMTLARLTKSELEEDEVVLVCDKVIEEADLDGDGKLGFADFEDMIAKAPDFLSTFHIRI

T3: CIB2-DD157/161AA (mouse, UniProt Q9Z309 1-187, DD157/161AA | DD157/161AA)
T3 sequence: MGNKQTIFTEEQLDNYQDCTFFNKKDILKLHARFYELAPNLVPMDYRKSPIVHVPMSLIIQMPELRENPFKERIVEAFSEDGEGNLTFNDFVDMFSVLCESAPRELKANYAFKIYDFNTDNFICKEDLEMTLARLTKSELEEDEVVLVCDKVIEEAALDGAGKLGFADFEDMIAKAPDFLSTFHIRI

T4: CIB2-E141N (mouse, UniProt Q9Z309 1-187, E141N)
T4 sequence: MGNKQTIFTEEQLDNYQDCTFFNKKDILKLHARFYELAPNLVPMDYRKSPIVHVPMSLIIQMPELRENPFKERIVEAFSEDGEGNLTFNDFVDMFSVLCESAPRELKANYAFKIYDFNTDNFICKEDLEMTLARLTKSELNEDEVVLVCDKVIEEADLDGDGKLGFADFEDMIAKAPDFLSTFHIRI

T5: CIB2, wild type, Trx-His6 tag removed (mouse, UniProt Q9Z309 1-187)
T5 sequence: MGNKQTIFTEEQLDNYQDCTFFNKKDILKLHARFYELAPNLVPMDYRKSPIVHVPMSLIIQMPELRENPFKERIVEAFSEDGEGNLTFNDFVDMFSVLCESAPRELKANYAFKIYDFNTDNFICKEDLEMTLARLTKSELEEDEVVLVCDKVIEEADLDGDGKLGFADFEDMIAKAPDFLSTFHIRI


Tests used:
CIB2-DD116/120AA = target: T1, CIB2-DD116/120AA; test: ITC
[1] = target: T2, CIB2 (calcium and integrin-binding …); test: ITC
CIB2-DD157/161AA = target: T3, CIB2-DD157/161AA; test: ITC
[2] = target: T2, CIB2 (calcium and integrin-binding …); test: ITC; remark: listed apart in the source
CIB2-E141N = target: T4, CIB2-E141N; test: crystal structure
[3] = target: T5, CIB2, wild type, Trx-His6 tag removed; test: SEC-MALS
[4] = target: T5, CIB2, wild type, Trx-His6 tag removed; test: SEC-MALS; remark: listed apart in the source

Binder | Kd [1] [µM] | Kd [2] [µM] | stoichiometry N [3] | also measured
EELERLKALLDENRQMIATVKCKPWKMEKKIEVLKEAKKFVSENEGALGK (domain or fragment, mouse, UniProt Q8R4P5 81-130, looked up) [TMC1 cytosolic region 1 (CR1, amino acids 81-130)] | ~0.074 | ~0.87 |  | fold decrease of binding against CIB2 WT (CIB2-DD116/120AA): ~150 fold; fold decrease of binding against CIB2 WT (CIB2-DD157/161AA): ~50 fold
TMC1 cytosolic region 2 (CR2, amino acids 298-352) with MBP tag (domain or fragment, mouse, UniProt Q8R4P5 298-352, looked up) GGGDDNTFNFSWKVFCSWDYLIGNPETADNKFNSITMNFKEAIIEERAAQVEENI | ~0.48 | ~10.8 |  | 
EELERLKALLDENRQMIATVKCKPWKMEKKIEVLKEAKKFVSENEGALGK (domain or fragment, mouse, UniProt Q8R4P5 81-130, looked up) [TMC1 CR1 (amino acids 81-130), Trx-His6 tag removed] |  |  | 1 | binding result (CIB2-E141N): binds
TMC1 CR2 (amino acids 298-352) as used in SEC-MALS (domain or fragment, mouse, UniProt Q8R4P5 298-352, looked up) GGGDDNTFNFSWKVFCSWDYLIGNPETADNKFNSITMNFKEAIIEERAAQVEENI |  |  | 1 | 
KGQKAANLDLKKKMKQQALENKMRNKKMAAARAAAAAGGQ (domain or fragment, mouse, UniProt Q8R4P5 718-757, looked up) [TMC1 CR3 (amino acids 718-757) as used in SEC-MALS] |  |  |  | stoichiometry N [4]: 1
KGQKAANLDLKKKMKQQALENKMRNKKMAAARAAAAAGGQ (domain or fragment, mouse, UniProt Q8R4P5 718-757, looked up) [TMC1 cytosolic region 3 (CR3, amino acids 718-757)] |  | ~43.4 |  | 
